Article PMC5027563, “Functional Recovery of AQP2 Recessive Mutations Through Hetero-Oligomerization with Wild-Type Counterpart” (Scientific Reports, 2016)
Numbering of substitutions follows the chain as printed. Names may count otherwise.

Key:
[1] = target: T1, wild-type Aquaporin-2 (untagged) (human, UniProt P41181 1-271)
T1 sequence (looked up): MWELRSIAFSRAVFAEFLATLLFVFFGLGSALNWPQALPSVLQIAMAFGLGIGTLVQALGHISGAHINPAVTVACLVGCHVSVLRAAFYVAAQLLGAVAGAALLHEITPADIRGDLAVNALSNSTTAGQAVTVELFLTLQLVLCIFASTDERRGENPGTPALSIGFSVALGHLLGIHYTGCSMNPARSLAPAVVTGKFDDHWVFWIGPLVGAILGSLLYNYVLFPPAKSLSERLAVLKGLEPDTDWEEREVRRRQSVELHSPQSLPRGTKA

[2] = target: T1, wild-type Aquaporin-2 (untagged); remark: listed apart in the source
[3] = target: T1, wild-type Aquaporin-2 (untagged); assay: cell-based or functional assay
[4] = target: T2, GFP-tagged Aquaporin-2 D150E (human, UniProt P41181 1-271, D150E); assay: co-IP; Xenopus oocytes co-injected with 0.5 ng mRNA of an untagged AQP2 variant and 1 ng (equimolar) of a GFP-tagged form, 24 h; total membranes solubilised in 2% deoxycholate in PBS, 100,000 x g supernatant; IP with goat anti-GFP and protein-G magnetic beads at room temperature; blot with anti-AQP2 of the untagged 29 kDa band; densitometry in % of wt-AQP2, 4 assays; details: partners not purified
T2 construct: Aquaporin-2 (AQP2), human, recessive NDI mutation D150E, GFP-tagged form; The methods describe only how pT7Ts-GFP-AQP2 (wild type) was made; also called GFP-tagged D150E; source: Xenopus laevis oocytes, cRNA injected; total membranes solubilised in 2% deoxycholate
T2 sequence (looked up): T1 sequence (looked up) with D150E

[5] = target: T3, GFP-tagged wild-type Aquaporin-2 (human, UniProt P41181 1-271); assay: as above; details: partners not purified
T3 construct: Aquaporin-2 (AQP2), human, wild type, from pT7Ts-GFP-AQP2 (subcloned through the pAc-GFP vector); 58 kDa with GFP; also called GFP-wt-AQP2; GFP-tagged-WT; source: Xenopus laevis oocytes, cRNA injected; total membranes solubilised in 2% deoxycholate
T3 sequence (looked up): T1 sequence (looked up)

[6] = target: T4, GFP-tagged Aquaporin-2 V24A (human, UniProt P41181 1-271, V24A); assay: as above; details: partners not purified
T4 construct: Aquaporin-2 (AQP2), human, recessive NDI mutation V24A, GFP-tagged form; The methods describe only how pT7Ts-GFP-AQP2 (wild type) was made; also called GFP-tagged V24A; source: Xenopus laevis oocytes, cRNA injected; total membranes solubilised in 2% deoxycholate
T4 sequence (looked up): T1 sequence (looked up) with V24A

B1: Aquaporin-2 L22V (untagged) (natural protein)
chain: T1 sequence (looked up) with L22V
net increase (gain of function) in water permeability (Pf) of oocytes when expressed along wt-AQP2, in % of the wt-AQP2 activity (% of the wt-AQP2 activity) [1]: 106

B2: Aquaporin-2 R254Q (untagged) (natural protein)
chain: T1 sequence (looked up) with R254Q
water permeability (Pf) of oocytes injected with 1 ng mRNA mixtures of wt/mut ratios 4/0 to 0/4, in % of pure wt-AQP2; the printed value is of the 2/2 ratio; dominant negative effect (% of pure wt-AQP2) [2]: 14

B3: Aquaporin-2 A147T (untagged) (natural protein)
chain: T1 sequence (looked up) with A147T
net increase (gain of function) in water permeability (Pf) of oocytes when expressed along wt-AQP2, in % of the wt-AQP2 activity (% of the wt-AQP2 activity) [1]: 45

B4: Aquaporin-2 T126M (untagged) (natural protein)
chain: T1 sequence (looked up) with T126M
net increase (gain of function) in water permeability (Pf) of oocytes when expressed along wt-AQP2, in % of the wt-AQP2 activity (% of the wt-AQP2 activity) [1]: 42

B5: Aquaporin-2 D150E (untagged) (natural protein, human, UniProt P41181 1-271, looked up)
chain: T1 sequence (looked up) with D150E
notes: Aquaporin-2 (AQP2), human, recessive NDI mutation D150E from reported clinical cases, made by site-directed mutagenesis in pT7Ts; also called rec-AQP2; source: Xenopus laevis oocytes, cRNA injected; total membranes solubilised in 2% deoxycholate
gain of function in water permeability (Pf) of oocytes on coexpression with wt-AQP2 (specific activity with wt-AQP2 minus without), in % of wt-AQP2 activity [3]: 65.2 % of wt-AQP2 activity | co-precipitated untagged band, densitometry in % of wt-AQP2 (rec/rec homomers) [4]: 30 % of wt-AQP2 | co-precipitated untagged band, densitometry in % of wt-AQP2 (wt/rec heteromers) [5]: 86 % of wt-AQP2

B6: Aquaporin-2 R187C (untagged) (natural protein, human, UniProt P41181 1-271, looked up)
chain: T1 sequence (looked up) with R187C
gain of function in water permeability (Pf) of oocytes on coexpression with wt-AQP2 (specific activity with wt-AQP2 minus without), in % of wt-AQP2 activity; not functionally recovered [3]: 0.4 % of wt-AQP2 activity

B7: Aquaporin-2 V24A (untagged) (natural protein, human, UniProt P41181 1-271, looked up)
chain: T1 sequence (looked up) with V24A
notes: Aquaporin-2 (AQP2), human, recessive NDI mutation V24A from reported clinical cases, made by site-directed mutagenesis in pT7Ts; also called rec-AQP2; source: Xenopus laevis oocytes, cRNA injected; total membranes solubilised in 2% deoxycholate
gain of function in water permeability (Pf) of oocytes on coexpression with wt-AQP2 (specific activity with wt-AQP2 minus without), in % of wt-AQP2 activity [3]: 63.9 % of wt-AQP2 activity | water permeability (Pf) of oocytes injected with 1 ng mRNA mixtures of wt/mut ratios 4/0 to 0/4, in % of pure wt-AQP2; the printed value is of the 2/2 ratio [3]: 87 % of pure wt-AQP2 | co-precipitated untagged band, densitometry in % of wt-AQP2 (rec/rec homomers) [6]: 26 % of wt-AQP2 | co-precipitated untagged band, densitometry in % of wt-AQP2 (wt/rec heteromers) [5]: 75 % of wt-AQP2
